# ± gives the standard deviation of the averaged measurements.
# Columns and labels:
# [1] = system: Saccharomyces cerevisiae; assay: protein stability index of tFT-peptide fusion (C-terminal peptide) (PSI (0-1 scale)); higher = more stable (slower turnover); conditions: genetic background: wild type; temperature: 30 C
# [2] = system: Saccharomyces cerevisiae; assay: as above
# Description: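 MPS profiling in S. cerevisiae of the tFT-X12 degron library: putative degron peptides plus stable controls, 12 aa, fused to the C-terminus of a sfGFP-mCherry timer. Cells are FACS-sorted into 8 mCherry/sfGFP bins and deep-sequenced. PSI runs from 0 (unstable) to 1 (stable). Backgrounds are wild type, das1Δ and doa10Δ at 30 °C, and wild type, das1Δ, cdc34-1 and cdc53-1 at 37 °C; 2-3 technical replicates each.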
# [3] = genetic background: cdc34-1, temperature: 37 C
# [4] = genetic background: cdc53-1, temperature: 37 C
# [5] = genetic background: das1 deletion, temperature: 30 C
# [6] = genetic background: das1 deletion, temperature: 37 C
# [7] = genetic background: doa10 deletion, temperature: 30 C
# [8] = genetic background: wild type, temperature: 30 C
# [9] = genetic background: wild type, temperature: 37 C
# 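Also: PSI is a weighted mean of sequencing reads over stability bins, variants kept only with over 10 reads, mCherry proximal and sfGFP distal, peptide attached via GGGS linker.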
sequence,measurement,setting,value
FLYFLLQFLCSG,protein stability index,[1],0.516 ± 0.034
same,protein stability index,[2]; [3],0.517 ± 0.04
same,protein stability index,[2]; [4],0.544 ± 0.0046
same,protein stability index,[2]; [5],0.418 ± 0.034
same,protein stability index,[2]; [6],0.597 ± 0.046
same,protein stability index,[2]; [7],0.406 ± 0.0045
same,protein stability index,[2]; [8],0.421 ± 0.029
same,protein stability index,[2]; [9],0.579 ± 0.034
FMCFVLPVFVLV,protein stability index,[1],0.306 ± 0.024
same,protein stability index,[2]; [3],0.247 ± 0.013
same,protein stability index,[2]; [4],0.282 ± 0.034
same,protein stability index,[2]; [5],0.222 ± 0.029
same,protein stability index,[2]; [6],0.389 ± 0.0074
same,protein stability index,[2]; [7],0.196 ± 0.018
same,protein stability index,[2]; [8],0.212 ± 0.017
same,protein stability index,[2]; [9],0.344 ± 0.014
FNFFFSSVFLLV,protein stability index,[1],0.299 ± 0.015
same,protein stability index,[2]; [3],0.3037 ± 0.0011
same,protein stability index,[2]; [4],0.252 ± 0.025
same,protein stability index,[2]; [5],0.342 ± 0.048
same,protein stability index,[2]; [6],0.436 ± 0.051
same,protein stability index,[2]; [7],0.3 ± 0.022
same,protein stability index,[2]; [8],0.19 ± 0.02
same,protein stability index,[2]; [9],0.334 ± 0.029
FPFFFLSILSAV,protein stability index,[1],0.177 ± 0.019
same,protein stability index,[2]; [3],0.262 ± 0.015
same,protein stability index,[2]; [4],0.2944 ± 0.0028
same,protein stability index,[2]; [5],0.256 ± 0.037
same,protein stability index,[2]; [6],0.383 ± 0.0098
same,protein stability index,[2]; [7],0.11 ± 0.0067
same,protein stability index,[2]; [8],0.122 ± 0.023
same,protein stability index,[2]; [9],0.168 ± 0.0078
FPFVYRSVLLFF,protein stability index,[1],0.177 ± 0.089
same,protein stability index,[2]; [3],0.392 ± 0.052
same,protein stability index,[2]; [4],0.484 ± 0.012
same,protein stability index,[2]; [5],0.411 ± 0.033
same,protein stability index,[2]; [6],0.577 ± 0.011
same,protein stability index,[2]; [7],0.1059 ± 0.00044
same,protein stability index,[2]; [8],0.0991 ± 0.021
same,protein stability index,[2]; [9],0.216 ± 0.029
FPPRLIPLLARS,protein stability index,[1],0.372 ± 0.02
same,protein stability index,[2]; [3],0.442 ± 0.028
same,protein stability index,[2]; [4],0.4556 ± 0.00087
same,protein stability index,[2]; [5],0.31 ± 0.044
same,protein stability index,[2]; [6],0.511 ± 0.0063
same,protein stability index,[2]; [7],0.2401 ± 0.0016
same,protein stability index,[2]; [8],0.291 ± 0.025
same,protein stability index,[2]; [9],0.4713 ± 0.0013
FPSCYIWEVEVM,protein stability index,[1],0.442 ± 0.037
same,protein stability index,[2]; [3],0.403 ± 0.049
same,protein stability index,[2]; [4],0.403 ± 0.021
same,protein stability index,[2]; [5],0.32 ± 0.039
same,protein stability index,[2]; [6],0.484 ± 0.038
same,protein stability index,[2]; [7],0.268 ± 0.0021
same,protein stability index,[2]; [8],0.333 ± 0.023
same,protein stability index,[2]; [9],0.436 ± 0.0047
FPSLLFALFLFI,protein stability index,[1],0.475 ± 0.017
same,protein stability index,[2]; [3],0.481 ± 0.046
same,protein stability index,[2]; [4],0.502 ± 0.0056
same,protein stability index,[2]; [5],0.436 ± 0.027
same,protein stability index,[2]; [6],0.5271 ± 0.00065
same,protein stability index,[2]; [7],0.4401 ± 0.0013
same,protein stability index,[2]; [8],0.415 ± 0.036
same,protein stability index,[2]; [9],0.501 ± 0.018
FPVSSRSFSFIP,protein stability index,[1],0.727 ± 0.046
same,protein stability index,[2]; [3],0.66 ± 0.051
same,protein stability index,[2]; [4],0.7594 ± 0.0028
same,protein stability index,[2]; [5],0.666 ± 0.02
same,protein stability index,[2]; [6],0.732 ± 0.019
same,protein stability index,[2]; [7],0.627 ± 0.02
same,protein stability index,[2]; [8],0.656 ± 0.028
same,protein stability index,[2]; [9],0.717 ± 0.053
FRFYCGLVIANV,protein stability index,[1],0.483 ± 0.027
same,protein stability index,[2]; [3],0.455 ± 0.016
same,protein stability index,[2]; [4],0.484 ± 0.029
same,protein stability index,[2]; [5],0.385 ± 0.019
same,protein stability index,[2]; [6],0.51729 ± 0.00021
same,protein stability index,[2]; [7],0.359 ± 0.03
same,protein stability index,[2]; [8],0.377 ± 0.031
same,protein stability index,[2]; [9],0.531 ± 0.039
FSCLCLCVATSG,protein stability index,[1],0.23 ± 0.013
same,protein stability index,[2]; [3],0.348 ± 0.031
same,protein stability index,[2]; [4],0.396 ± 0.056
same,protein stability index,[2]; [5],0.221 ± 0.019
same,protein stability index,[2]; [6],0.379 ± 0.015
same,protein stability index,[2]; [7],0.237 ± 0.031
same,protein stability index,[2]; [8],0.219 ± 0.023
same,protein stability index,[2]; [9],0.355 ± 0.03
FSFSAFARFLVI,protein stability index,[1],0.358 ± 0.036
same,protein stability index,[2]; [3],0.618 ± 0.048
same,protein stability index,[2]; [4],0.704 ± 0.02
same,protein stability index,[2]; [5],0.604 ± 0.033
same,protein stability index,[2]; [6],0.6999 ± 0.0034
same,protein stability index,[2]; [7],0.243 ± 0.0081
same,protein stability index,[2]; [8],0.255 ± 0.025
same,protein stability index,[2]; [9],0.378 ± 0.018
FSFSCFFFVLFV,protein stability index,[1],0.127 ± 0.0048
same,protein stability index,[2]; [3],0.0608 ± 0.036
same,protein stability index,[2]; [4],0.0424 ± 0.002
same,protein stability index,[2]; [5],0.0913 ± 0.018
same,protein stability index,[2]; [6],0.11 ± 0.022
same,protein stability index,[2]; [7],0.265 ± 0.0023
same,protein stability index,[2]; [8],0.0703 ± 0.038
same,protein stability index,[2]; [9],0.0898 ± 0.017
FSFSFYFALASF,protein stability index,[1],0.4603 ± 0.00095
same,protein stability index,[2]; [3],0.474 ± 0.047
same,protein stability index,[2]; [4],0.514 ± 0.0099
same,protein stability index,[2]; [5],0.425 ± 0.018
same,protein stability index,[2]; [6],0.495 ± 0.011
same,protein stability index,[2]; [7],0.41 ± 0.0077
same,protein stability index,[2]; [8],0.422 ± 0.0075
same,protein stability index,[2]; [9],0.483 ± 0.034
FTFLFPLRLLPL,protein stability index,[1],0.3469 ± 0.00084
same,protein stability index,[2]; [3],0.305 ± 0.051
same,protein stability index,[2]; [4],0.295 ± 0.025
same,protein stability index,[2]; [5],0.377 ± 0.036
same,protein stability index,[2]; [6],0.478 ± 0.015
same,protein stability index,[2]; [7],0.586 ± 0.033
same,protein stability index,[2]; [8],0.374 ± 0.009
same,protein stability index,[2]; [9],0.442 ± 0.011
FVFCGVVFLFLL,protein stability index,[1],0.351 ± 0.086
same,protein stability index,[2]; [3],0.399 ± 0.033
same,protein stability index,[2]; [4],0.467 ± 0.0057
same,protein stability index,[2]; [5],0.395 ± 0.058
same,protein stability index,[2]; [6],0.519 ± 0.018
same,protein stability index,[2]; [7],0.347 ± 0.0093
same,protein stability index,[2]; [8],0.326 ± 0.018
same,protein stability index,[2]; [9],0.462 ± 0.0044
FVFIFIRVFFFR,protein stability index,[1],0.269 ± 0.011
same,protein stability index,[2]; [3],0.174 ± 0.0037
same,protein stability index,[2]; [4],0.207 ± 0.024
same,protein stability index,[2]; [5],0.189 ± 0.044
same,protein stability index,[2]; [6],0.308 ± 0.017
same,protein stability index,[2]; [7],0.171 ± 0.0012
same,protein stability index,[2]; [8],0.176 ± 0.011
same,protein stability index,[2]; [9],0.2451 ± 0.0022
FVFLVLGPYAMF,protein stability index,[1],0.415 ± 0.0026
same,protein stability index,[2]; [3],0.444 ± 0.032
same,protein stability index,[2]; [4],0.512 ± 0.013
same,protein stability index,[2]; [5],0.354 ± 0.028
same,protein stability index,[2]; [6],0.609 ± 0.048
same,protein stability index,[2]; [7],0.346 ± 0.013
same,protein stability index,[2]; [8],0.341 ± 0.01
same,protein stability index,[2]; [9],0.556 ± 0.019
FVGVLVLCVCRC,protein stability index,[1],0.278 ± 0.024
same,protein stability index,[2]; [3],0.0544 ± 0.0064
same,protein stability index,[2]; [4],0.137 ± 0.015
same,protein stability index,[2]; [5],0.17 ± 0.029
same,protein stability index,[2]; [6],0.247 ± 0.021
same,protein stability index,[2]; [7],0.116 ± 0.025
same,protein stability index,[2]; [8],0.155 ± 0.025
same,protein stability index,[2]; [9],0.21 ± 0.014
FVLFCWFFCIVW,protein stability index,[1],0.273 ± 0.043
same,protein stability index,[2]; [3],0.293 ± 0.019
same,protein stability index,[2]; [4],0.326 ± 0.029
same,protein stability index,[2]; [5],0.263 ± 0.011
same,protein stability index,[2]; [6],0.3625 ± 0.00095
same,protein stability index,[2]; [7],0.286 ± 0.032
same,protein stability index,[2]; [8],0.226 ± 0.033
same,protein stability index,[2]; [9],0.342 ± 0.012
